In patent publication US20220315670A1 (RESEARCH FOUNDATION FOR THE STATE UNIVERSITY OF NEW YORK, published 2022):

Assays:
[1] = target: T1, trastuzumab (Herceptin); assay: ELISA screen of colony lysate on coated trastuzumab, 40 h with 1 uM 1HE, high-affinity panning
T1 construct: also called Tmab; not shown: the constant regions

[2] = target: T1, trastuzumab (Herceptin); assay: dissociation ELISA on covalently immobilised trastuzumab
Procedure: (§1) Individual mutants were expressed and purified using a nickel chromatography resin, as previously described (16). […] The following day, unreacted sites were blocked with 10 mM ethanolamine in a 100 mM sodium bicarbonate buffer pH 9.5 for one hour. Purified mutants were incubated for one hour and subsequently washed three times with wash buffer. Following washing, 0.1% BSA PBS solution was added to the initial timepoint wells. […] At individual time points, the buffer in the time point wells was removed by pipetting, and the wells washed three times with wash buffer and 0.1% BSA PBS added. At the terminal time point, all wells were washed three times with wash buffer, and secondary antibodies added at the dilutions listed above for one hour at room temperature. Following secondary incubation, plates were washed three times with wash buffer and three times with dH₂O. 250 μl of 4 mg/ml PnPP in a 10 mM diethanolamine pH 9.8 buffer was added to each well, and absorbance values read for 10 minutes at 30-second intervals. The change in absorbance per minute for each well was divided by the average change in absorbance per minute for the initial time point wells, and the resulting dissociation curves fit to a monoexponential decay function in GraphPad Prism 7 (GraphPad, San Diego, Calif.). Each time point was run in triplicate for each mutant.

[3] = target: T1, trastuzumab (Herceptin); assay: SPR, trastuzumab immobilized by amine coupling, 10-hour dissociation, 1:1 Langmuir fit
Procedure: (§2) A mobile phase of 0.05% Tween-20 PBS pH 7.4 was used at a flow rate of 25 μL/minute. […] Association and dissociation rate constants were determined using a 1:1 Langmuir binding model in the biosensor data analysis software Scrubber (BioLogic Software, Canberra, Australia).
(§3) An optimal range was 10 pM to 10 nM.

[4] = target: T1, trastuzumab (Herceptin); assay: inferred from the IC50 of the SKOV3 cell competition assay with 200 pM 125I-trastuzumab
Procedure: (§4) SKOV3 cells (ATCC, HTB-77) were grown in complete McCoys 5a media to confluency in a T75 flask and dissociated using 50 μM EDTA. […] Cells were incubated at 4° C. for 90 minutes to reach binding equilibrium followed by 4 washes with 1 mL of 1% BSA PBS buffer to remove non-specific radioactivity. Cell-associated radioactivity was assessed through gamma counting.
as §3

[5] = target: T1, trastuzumab (Herceptin); assay: SPR, trastuzumab immobilized by amine coupling, 1HE at 10, 20 and 35 nM, 1:1 Langmuir fit
Procedure: as §2, §3

[6] = target: T1, trastuzumab (Herceptin); assay: competition on SKOV3 cells, 125I-trastuzumab with increasing 1HE, cell-associated radioactivity
Procedure: Points represent the mean of triplicate samples with standard deviation error bars.
as §4

[7] = target: T1, trastuzumab (Herceptin); assay: competition on SKOV3 cells, 200 pM 125I-trastuzumab with increasing 1HE, 4 C, 90 minutes, gamma counting
Procedure: as §4, §3

[8] = target: T1, trastuzumab (Herceptin); assay: dissociation ELISA on covalently immobilised trastuzumab, 1 uM 1HE in the buffer
Procedure: as §1

[9] = target: T1, trastuzumab (Herceptin); assay: ELISA screen of colony lysate on coated trastuzumab, low-affinity panning
[10] = target: T1, trastuzumab (Herceptin); assay: dissociation ELISA, trastuzumab covalently immobilized, 1 uM 1HE in buffer to block rebinding, monoexponential fit
Procedure: as §1

[11] = target: T1, trastuzumab (Herceptin); assay: dissociation ELISA on covalently immobilised trastuzumab, 500 nM trastuzumab in the buffer
Procedure: as §1

| estimated half-life [1] | T1/2 [8] | Binder | also measured |
| --- | --- | --- | --- |
| 43.5 h |  | 2D7 (VHH) VHH: EVQLVESGGGLVQAGDSLTLSCAASGRTFSSVAMGWFRQAPGKERKFVANISWNGDSTYYTDSVKGRFTISRDNAKNTVYLQMSSLKPEDTAVYYCAADVRWAGDGHRADYWGQGTQVTVSS |  |
|  |  | 1HE, anti-idiotypic camelid single domain antibody against trastuzumab (VHH, also called wild-type 1HE; cold-1HE) VHH: EVQLVESGGGLVQAGDSLTLSCAASGRTFSSVAMGWFRQAPGKERKFVANISWNGDSTYYTDSVKGRFTISRDNAKNTVYLQMSSLKPEDTAVYYCAADVRWTGDGHRADYWGQGTQVTVSS | T1/2 [2]: 17.4 h; half-life of dissociation [3]: 26.6 h; Kd [4]: ≤ 122 pM; Kd [5]: 33.5 pM; IC50 [6]: 129 pM; IC50 [7]: 122 pM |
|  | 84.1 h | 2C4 (VHH, also called 1HE mutant 2C4) VHH: EVQLVESGGGLVQAGDSLTLSCAASGRTFSSVAMGWFRQAPGKERKFVANISWNGDSTYYTDSVKGRFTISRDNAKNTVYLQMSSLKPEDTAVYYCAADVRWAGDGHRADYWGQGTLVTVSS |  |
| 29.6 h | 8.8 h | 2D11 (VHH, also called 1HE mutant 2D11) VHH: EVQLVESGGGLVQAGDSLTLSCAASGRTFSSVAMGWFRQAPGKERKFVANISWNGDSTYYTDSVKGRFTISRDNARNTVYLQMSSLKPEDTAVYYCAADVRWTGDGHRADYWGQGTQVTVSS |  |
|  |  | 1E10 (VHH, also called 1HE mutant 1E10) VHH: EVQLVESGGGLVQAGAGLTLSCAASGRTFSSVAMGWFRQAPGKERKFVANISWNGDSTYYTDSVKGRFTISRDNAKNTVYLQMSSLKPEDTAVYYCAADVRWTGDGHRADYWGQGTQVTVSS | estimated half-life [9]: 19.3 h |
| 35.7 h |  | 1HE mutant 2E10 (L18Q, T103A) (VHH) VHH: EVQLVESGGGLVQAGDSQTLSCAASGRTFSSVAMGWFRQAPGKERKFVANISWNGDSTYYTDSVKGRFTISRDNAKNTVYLQMSSLKPEDTAVYYCAADVRWAGDGHRADYWGQGTQVTVSS | estimated binding half-life [10]: 482 h |
|  |  | 1F3 (VHH) VHH: EVQLVESGGGLVQAGDSLTLSCAASGRTFSSVAMGWFRQAPGKERKFVANISWNGYSTYYTDSVKGRFTISRDNAKNTVYLQMSSLKPEDTAVYYCAADVRWTGDGHRADYWGQGTQVTVSS | T1/2 [11]: 5.1 h |
| 26.9 h | 5.4 h | 2H2 (VHH, also called 1HE mutant 2H2) VHH: EVQLVESGDGLVQAGDSLTLSCAASGRAFSSVAMGWFRQAPGKERKFVANISWNGDSTYYTDSVKGRFTISRDNAKNTVYLQMSSLKPEDTAVYYCAADVRWTGDGHRADYWGQGTQVTVSS |  |
|  |  | 1C3 (VHH) VHH: EVQLVESGGGLVQAGDSLTLSCAASGRTFSSVAMGWFRQAPGKERKFVANISWNGDSTYYTDSVKGRFTISRDNAKNTVYLQMSSLKPEDTAVYYCVADVRWTGDGHRADYWGQGTQVTVSS | T1/2 [11]: 12.1 h |
| 15.7 h |  | 2G2 (VHH) VHH: EVQLVESGGGLVQAGDSLTLSCAASGRTFSSVAMGWFRQAPGKERKFVANISWNGDSTYYTDSVKGRFTISRDNAKNTVYLQMSSLKPEDTAVYYCAADVRWTGDGHRADNWGQGTQVTVSS |  |
| 70.8 h | 187 h | 2A4 (VHH, also called 1HE mutant 2A4) VHH: EVQLVESGGGLVQAGDSLTLSCAASGRTFSSVAMGWFRQAPGKERKFVANISWNGDSAYYTDSVKGRFTISRDNAKNTVYLQMSSLKPEDTAVYYCAADVRWTGDGHRADYWGQGTQVTVSS |  |
| 17.7 h |  | 2E11 (VHH, also called 1HE mutant 2E11) VHH: EVQLVESGGGLVQAGDSLTLSCAASGRTFSSVAMGWFRQAPGKERKFVANISWNGDSTYYTDSVKGRFTISRDNAKNTVYLQMSSLEPEDTAVYYCAADVRWTGDGHRADYWGQGTQVTVSS |  |
|  |  | 1G1 (VHH) VHH: EVQLVESGGGLVQAGDSLTLSCAASGRTFSSVAMGWFRQAPGKERKFVANISWDGGSTYYTDSVKGRFTISRDSAKNTVYLQMSSLKPEDTAVYYCAADVRWTGDGHRADYWGQGTQVTVSS | T1/2 [11]: 12.1 h |
| 30.8 h | 55.5 h | 2F9 (VHH, also called 1HE mutant 2F9) VHH: EVQLVESGGGLVQAGDSLTLSCAASGRTFSSVAMGWFRQAPGKERKFVANISWNGDSTYYTDSVKGRFTISRDNAKNTVYLQMSSLKPEDTAVYYCAADVRWTGEGHRADYWGQGTQVTVSS |  |
|  |  | 1G11 (VHH) VHH: EVQLVESGGDLVQAGDSLTLSCAASGRTFSGVAMGWFRQAPGKERKFVANISWNGVSTYYTDSVKGRFTISRDNAKNTVYLQMSSLKPEDTAVYYCAADVRWTGDGHRADYWGQGTQVTVSS | T1/2 [11]: 35.1 h |
